Literature values in paper PMC3338619, “Ligand Binding Study of Human PEBP1/RKIP: Interaction with Nucleotides and Raf-1 Peptides Evidenced by NMR and Mass Spectrometry” (PLoS ONE, 2012).
pKd: −log10 of the molar value.

Target: Raf-1 tri-phosphorylated peptide (Homo sapiens) (UniProt P04049)

pKd: 4.70
Substance: rPEBP1 (from UniProt P31044)
